According to doi:10.1101/2023.10.24.563883:

Molecular target: LPHN2-ICL1-Nluc (UniProt O95490)
Assay: FRET or BRET

Sequence of LPHN2-ICL1-Nluc (O95490 26-1459): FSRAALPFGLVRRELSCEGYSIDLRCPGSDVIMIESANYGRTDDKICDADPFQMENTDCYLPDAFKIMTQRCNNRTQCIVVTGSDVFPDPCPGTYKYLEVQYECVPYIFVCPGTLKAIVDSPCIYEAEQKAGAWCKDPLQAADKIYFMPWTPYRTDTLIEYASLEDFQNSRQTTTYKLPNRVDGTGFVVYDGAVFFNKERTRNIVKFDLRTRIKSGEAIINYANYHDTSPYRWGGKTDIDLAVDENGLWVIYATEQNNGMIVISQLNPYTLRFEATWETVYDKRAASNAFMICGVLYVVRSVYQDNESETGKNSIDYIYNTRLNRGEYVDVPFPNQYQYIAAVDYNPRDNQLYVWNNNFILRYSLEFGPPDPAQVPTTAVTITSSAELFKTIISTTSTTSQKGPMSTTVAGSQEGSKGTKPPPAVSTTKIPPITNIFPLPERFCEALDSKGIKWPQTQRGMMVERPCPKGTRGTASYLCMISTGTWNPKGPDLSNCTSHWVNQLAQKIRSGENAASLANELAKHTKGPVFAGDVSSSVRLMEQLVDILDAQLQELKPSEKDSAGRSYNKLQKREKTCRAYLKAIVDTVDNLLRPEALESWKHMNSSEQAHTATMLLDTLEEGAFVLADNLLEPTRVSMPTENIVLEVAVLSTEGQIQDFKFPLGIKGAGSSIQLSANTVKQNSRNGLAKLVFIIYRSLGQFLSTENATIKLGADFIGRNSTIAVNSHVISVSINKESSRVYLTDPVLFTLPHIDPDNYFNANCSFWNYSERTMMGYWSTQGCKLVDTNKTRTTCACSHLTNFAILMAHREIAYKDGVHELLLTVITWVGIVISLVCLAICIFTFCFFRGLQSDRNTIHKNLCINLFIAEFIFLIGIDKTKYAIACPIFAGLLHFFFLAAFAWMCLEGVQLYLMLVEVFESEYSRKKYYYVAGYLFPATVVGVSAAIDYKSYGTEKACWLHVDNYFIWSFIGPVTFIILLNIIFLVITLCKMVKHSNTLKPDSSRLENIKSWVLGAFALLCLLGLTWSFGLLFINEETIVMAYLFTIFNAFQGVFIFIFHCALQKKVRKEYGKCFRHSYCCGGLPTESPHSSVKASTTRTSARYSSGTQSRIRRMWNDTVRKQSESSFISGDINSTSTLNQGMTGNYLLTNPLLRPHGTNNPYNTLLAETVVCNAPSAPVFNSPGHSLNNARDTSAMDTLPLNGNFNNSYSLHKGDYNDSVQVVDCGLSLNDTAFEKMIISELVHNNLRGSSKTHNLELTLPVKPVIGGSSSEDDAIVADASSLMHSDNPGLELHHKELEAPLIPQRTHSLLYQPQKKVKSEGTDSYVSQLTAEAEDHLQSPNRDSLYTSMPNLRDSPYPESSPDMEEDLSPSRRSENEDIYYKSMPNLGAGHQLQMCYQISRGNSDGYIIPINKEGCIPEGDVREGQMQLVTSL

TMC1-C-YFP (from UniProt Q8TDI8 1-760) (natural protein)
EC50 of force for the increase of the BRET signal: 5.2 pN | stoichiometry N (TMC1 per LPHN2): 2
